This note sets out measurements from paper PMC8808184 (2021).

Test [1] concerns the target T1, hCNTN5 (Homo sapiens (Human), UniProt O94779).
T1 chain: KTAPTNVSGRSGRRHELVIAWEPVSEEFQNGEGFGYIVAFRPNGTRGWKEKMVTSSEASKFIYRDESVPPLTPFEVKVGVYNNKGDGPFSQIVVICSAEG
The test can be described thus: BLI steady state, CNTN FN1-FN3 over biotinylated E1.

For test [2], the target named is T2, hCNTN3 (Homo sapiens (Human), UniProt Q9P232).
T2 chain: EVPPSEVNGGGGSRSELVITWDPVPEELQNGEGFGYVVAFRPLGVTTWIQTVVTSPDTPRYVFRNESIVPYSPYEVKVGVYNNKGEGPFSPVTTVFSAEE
The test is described as above.

B1: hAPLP2 (protein)
chain: GEFVSDVLLVPEKCQFFHKERMEVCENHQHWHTVVKEACLTQGMTLYSYGMLLPCGVDQFHGTEYVCCPQ
One may read the Kd as the constant that tells how readily two partners part at equilibrium. Lower therefore signals a tighter complex. In turn, B1 had a Kd in test [1] of 38.6 µM. In other words, the double-digit micromolar range.

B2: hAPLP1 (protein)
chain: GEFVSEALLVPEGCRFLHQERMDQCESSTRRHQEAQEACSSQGLILHGSGMLLPCGSDRFRGVEYVCCPP
With B2, the Kd in test [1] was determined as 10.9 µM; in test [2], 9.1 µM.
